For eight substances, IFN-γ+TNF+ CD8+ T cells (expanded with pool I) after restimulation with peptide-pulsed C1R.B*08:01; donors responding, IFN-γ+TNF+ CD8+ T cells (expanded with pool H) after restimulation with peptide-pulsed C1R.B*07:02; donors responding and IFN-γ+TNF+ CD8+ T cells (expanded with pool J) after restimulation with peptide-pulsed C1R.B*35:01; donors responding results are on record in PMC11059233.

The first assay addresses HLA-B*08:01 expressed in C1R cells (C1R.B*08:01) (human | human (endogenous in C1R)).
Consider influenza B virus NP_(479-487) peptide, for which the IFN-γ+TNF+ CD8+ T cells (expanded with pool I) after restimulation with peptide-pulsed C1R.B*08:01; donors responding is 4 of 9 donors.

As to influenza B virus NP_(30-38) peptide, the IFN-γ+TNF+ CD8+ T cells (expanded with pool I) after restimulation with peptide-pulsed C1R.B*08:01; donors responding was 5 of 9 donors.

Take influenza B virus NP_(92-99) peptide: the IFN-γ+TNF+ CD8+ T cells (expanded with pool I) after restimulation with peptide-pulsed C1R.B*08:01; donors responding is 6 of 9 donors.

In the next assay the target is HLA-B*07:02 expressed in C1R cells (C1R.B*07:02) (human | human (endogenous in C1R)).
In the case of influenza B virus NP_(30-38) peptide, the IFN-γ+TNF+ CD8+ T cells (expanded with pool H) after restimulation with peptide-pulsed C1R.B*07:02; donors responding is 7 of 10 donors.

For the substance influenza B virus NP_(233-244) peptide, the IFN-γ+TNF+ CD8+ T cells (expanded with pool H) after restimulation with peptide-pulsed C1R.B*07:02; donors responding is 9 of 10 donors.

influenza B virus HA_(255-263) peptide: the IFN-γ+TNF+ CD8+ T cells (expanded with pool H) after restimulation with peptide-pulsed C1R.B*07:02; donors responding was 2 of 10 donors.

In the case of influenza B virus NS1_(196-206) peptide, the IFN-γ+TNF+ CD8+ T cells (expanded with pool H) after restimulation with peptide-pulsed C1R.B*07:02; donors responding was 6 of 10 donors.

The target in another assay is HLA-B*35:01 expressed in C1R cells (C1R.B*35:01) (human | human (endogenous in C1R)).
On to influenza B virus HA_(231-239) peptide, for which the IFN-γ+TNF+ CD8+ T cells (expanded with pool J) after restimulation with peptide-pulsed C1R.B*35:01; donors responding was 3 of 6 donors.

influenza B virus NS1_(260-268) peptide: the IFN-γ+TNF+ CD8+ T cells (expanded with pool J) after restimulation with peptide-pulsed C1R.B*35:01; donors responding was 5 of 6 donors.
